Measurements from PMC2756588.

Key:
Assay in all cases: SPOT array
Pex13, P80667 = biological target: T1, Pex13, P80667; conditions: median of control spots 1341
T1 sequence (P80667 295-386, looked up): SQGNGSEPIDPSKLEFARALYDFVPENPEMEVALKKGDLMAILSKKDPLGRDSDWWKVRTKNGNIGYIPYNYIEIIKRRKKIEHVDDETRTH

Bzz1-2, P38822 = biological target: T2, Bzz1-2, P38822; conditions: median of control spots 4538
T2 sequence (P38822 568-633, looked up): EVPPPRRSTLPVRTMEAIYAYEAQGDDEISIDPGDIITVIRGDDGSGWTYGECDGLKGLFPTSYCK

Bem1-1, P29366 = conditions: median of control spots 4282
Bem1-1, P29366, sequence (P29366 55-141): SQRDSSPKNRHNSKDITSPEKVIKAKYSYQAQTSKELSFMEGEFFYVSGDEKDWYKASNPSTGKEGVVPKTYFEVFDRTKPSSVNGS

Fus1, P11710 = biological target: T3, Fus1, P11710; conditions: median of control spots 1200
T3 sequence (P11710 432-512, looked up): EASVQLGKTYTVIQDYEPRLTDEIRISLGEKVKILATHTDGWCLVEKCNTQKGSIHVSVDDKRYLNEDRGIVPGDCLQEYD

Lsb3, P43603 = biological target: T4, Lsb3, P43603; conditions: median of control spots 406
T4 sequence (P43603 385-451, looked up): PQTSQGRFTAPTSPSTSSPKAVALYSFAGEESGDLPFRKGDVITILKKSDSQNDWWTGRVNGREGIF

Cyk3, Q07533 = biological target: T5, Cyk3, Q07533; conditions: median of control spots 1451
T5 sequence (Q07533 1-83, looked up): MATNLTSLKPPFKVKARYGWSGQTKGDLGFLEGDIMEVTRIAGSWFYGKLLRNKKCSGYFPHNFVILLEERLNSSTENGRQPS

Cdc25, P04821 = biological target: T6, Cdc25, P04821; conditions: median of control spots 969
T6 sequence (P04821 50-136, looked up): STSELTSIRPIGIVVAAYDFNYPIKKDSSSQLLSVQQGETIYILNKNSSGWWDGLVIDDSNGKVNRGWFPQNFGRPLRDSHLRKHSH

Hse1, P38753 = biological target: T7, Hse1, P38753; conditions: median of control spots 1727
T7 sequence (P38753 208-285, looked up): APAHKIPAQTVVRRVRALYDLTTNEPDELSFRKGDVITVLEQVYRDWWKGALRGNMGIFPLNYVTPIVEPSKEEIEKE

GST = conditions: median of control spots 978
Lsb1, P53281 = biological target: T8, Lsb1, P53281; conditions: median of control spots 388
T8 sequence (P53281 45-122, looked up): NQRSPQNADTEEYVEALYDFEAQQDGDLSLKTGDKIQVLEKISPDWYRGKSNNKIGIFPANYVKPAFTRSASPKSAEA

Rvs167, P39743 = conditions: median of control spots 2707
Rvs167, P39743, sequence (P39743 419-482): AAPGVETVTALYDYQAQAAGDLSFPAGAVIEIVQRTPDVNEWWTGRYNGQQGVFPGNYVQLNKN

Boi1, P38041 = biological target: T9, Boi1, P38041; conditions: median of control spots 1162
T9 sequence (P38041 1-86, looked up): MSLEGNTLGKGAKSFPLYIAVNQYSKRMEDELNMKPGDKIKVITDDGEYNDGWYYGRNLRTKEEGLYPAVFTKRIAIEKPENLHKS

Lsb4, P32793 = biological target: T10, Lsb4, P32793; conditions: median of control spots 397
T10 sequence (P32793 402-468, looked up): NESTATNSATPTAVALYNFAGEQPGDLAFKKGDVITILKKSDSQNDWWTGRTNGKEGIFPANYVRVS

Nbp2, Q12163 = biological target: T11, Nbp2, Q12163; conditions: median of control spots 357
T11 sequence (Q12163 103-180, looked up): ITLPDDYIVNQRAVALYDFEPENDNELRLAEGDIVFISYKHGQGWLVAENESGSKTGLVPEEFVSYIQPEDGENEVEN

Pin3, Q06449 = biological target: T12, Pin3, Q06449; conditions: median of control spots 2171
T12 sequence (Q06449 53-122, looked up): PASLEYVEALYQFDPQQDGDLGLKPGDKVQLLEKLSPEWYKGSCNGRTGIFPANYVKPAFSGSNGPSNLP

Bem1-2, P29366 = conditions: median of control spots 4347
Bem1-2, P29366, sequence (P29366 139-227): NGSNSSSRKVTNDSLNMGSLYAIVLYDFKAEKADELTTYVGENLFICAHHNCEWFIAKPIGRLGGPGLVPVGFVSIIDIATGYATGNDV

Hof1, Q05080 = biological target: T13, Hof1, Q05080; conditions: median of control spots 4086
T13 sequence (Q05080 590-669, looked up): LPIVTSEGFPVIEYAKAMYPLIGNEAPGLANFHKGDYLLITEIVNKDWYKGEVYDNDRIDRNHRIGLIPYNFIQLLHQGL

Abp1, P15891 = biological target: T14, Abp1, P15891; conditions: median of control spots 935
T14 sequence (P15891 535-592, looked up): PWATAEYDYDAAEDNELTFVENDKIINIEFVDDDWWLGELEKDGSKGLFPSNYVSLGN

Bud14, P27637 = biological target: T15, Bud14, P27637; conditions: median of control spots 956
T15 sequence (P27637 247-328, looked up): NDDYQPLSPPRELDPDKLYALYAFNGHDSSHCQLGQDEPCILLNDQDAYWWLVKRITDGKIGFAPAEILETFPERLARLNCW

Myo3, P36006 = conditions: median of control spots 468
Sho1, P40073 = conditions: median of control spots 1148
Sho1, P40073, sequence (P40073 287-367): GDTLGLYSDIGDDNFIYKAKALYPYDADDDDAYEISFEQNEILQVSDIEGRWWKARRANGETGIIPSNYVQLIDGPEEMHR

Boi2, P39969 = biological target: T16, Boi2, P39969; conditions: median of control spots 1161
T16 sequence (P39969 32-116, looked up): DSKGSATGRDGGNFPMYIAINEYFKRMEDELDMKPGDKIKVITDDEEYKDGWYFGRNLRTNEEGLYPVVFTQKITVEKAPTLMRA

Sla1-3, P32790 = biological target: T17, Sla1-3, P32790; conditions: median of control spots 5475
T17 sequence (P32790 344-424, looked up): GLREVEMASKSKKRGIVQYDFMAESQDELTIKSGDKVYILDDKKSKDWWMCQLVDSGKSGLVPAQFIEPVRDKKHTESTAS

Bbc1, P47068 = biological target: T18, Bbc1, P47068; conditions: median of control spots 796
T18 sequence (P47068 1-78, looked up): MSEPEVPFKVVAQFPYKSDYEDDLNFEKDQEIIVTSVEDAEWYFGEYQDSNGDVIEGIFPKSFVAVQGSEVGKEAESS

Bzz1-1, P38822 = biological target: T19, Bzz1-1, P38822; conditions: median of control spots 4446
T19 sequence (P38822 478-572, looked up): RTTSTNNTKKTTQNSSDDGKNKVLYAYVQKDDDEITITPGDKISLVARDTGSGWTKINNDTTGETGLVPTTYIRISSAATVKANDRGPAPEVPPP

Sla1-2, P32790 = biological target: T20, Sla1-2, P32790; conditions: median of control spots 712
T20 sequence (P32790 60-140, looked up): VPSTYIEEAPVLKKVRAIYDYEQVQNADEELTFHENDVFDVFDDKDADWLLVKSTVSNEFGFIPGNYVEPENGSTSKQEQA

Myo5, Q04439 = biological target: T21, Myo5, Q04439; conditions: median of control spots 471
T21 sequence (Q04439 1072-1160, looked up): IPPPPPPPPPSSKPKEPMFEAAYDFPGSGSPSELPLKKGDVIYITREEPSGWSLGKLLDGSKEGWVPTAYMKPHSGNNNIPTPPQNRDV

B1: unnamed (peptide)
chain: KNPRRQLQIPRQQPS
- SPOT intensity (Pex13, P80667): 3
- SPOT intensity (Bzz1-2, P38822): 2
- SPOT intensity (Bem1-1, P29366): 2
- SPOT intensity (Fus1, P11710): 0
- SPOT intensity (Lsb3, P43603): 3
- SPOT intensity (Cyk3, Q07533): 0
- SPOT intensity (Cdc25, P04821): 54
- SPOT intensity (Hse1, P38753): 3
- SPOT intensity (GST): 4
- SPOT intensity (Lsb1, P53281): 216
- SPOT intensity (Rvs167, P39743): 2
- SPOT intensity (Boi1, P38041): 0
- SPOT intensity (Lsb4, P32793): 8
- SPOT intensity (Nbp2, Q12163): 0
- SPOT intensity (Pin3, Q06449): 3
- SPOT intensity (Bem1-2, P29366): 1
- SPOT intensity (Hof1, Q05080): 2
- SPOT intensity (Abp1, P15891): 92
- SPOT intensity (Bud14, P27637): 6
- SPOT intensity (Myo3, P36006): 4
- SPOT intensity (Sho1, P40073): 99
- SPOT intensity (Boi2, P39969): 0
- SPOT intensity (Sla1-3, P32790): 3
- SPOT intensity (Bbc1, P47068): 46
- SPOT intensity (Bzz1-1, P38822): 2
- SPOT intensity (Sla1-2, P32790): 0
- SPOT intensity (Myo5, Q04439): 1

B2: unnamed (peptide)
chain: LLGRKRPVMERVVDI
- SPOT intensity (Pex13, P80667): 110
- SPOT intensity (Bzz1-2, P38822): 4
- SPOT intensity (Bem1-1, P29366): 0
- SPOT intensity (Fus1, P11710): 0
- SPOT intensity (Lsb3, P43603): 4
- SPOT intensity (Cyk3, Q07533): 0
- SPOT intensity (Cdc25, P04821): 9
- SPOT intensity (Hse1, P38753): 9
- SPOT intensity (GST): 0
- SPOT intensity (Lsb1, P53281): 4
- SPOT intensity (Rvs167, P39743): 5
- SPOT intensity (Boi1, P38041): 0
- SPOT intensity (Lsb4, P32793): 27
- SPOT intensity (Nbp2, Q12163): 0
- SPOT intensity (Pin3, Q06449): 61
- SPOT intensity (Bem1-2, P29366): 0
- SPOT intensity (Hof1, Q05080): 0
- SPOT intensity (Abp1, P15891): 28
- SPOT intensity (Bud14, P27637): 3
- SPOT intensity (Myo3, P36006): 10
- SPOT intensity (Sho1, P40073): 74
- SPOT intensity (Boi2, P39969): 1
- SPOT intensity (Sla1-3, P32790): 4
- SPOT intensity (Bbc1, P47068): 1
- SPOT intensity (Bzz1-1, P38822): 0
- SPOT intensity (Sla1-2, P32790): 5
- SPOT intensity (Myo5, Q04439): 6

B3: unnamed (peptide)
chain: SRYRRPLTLLLLKPF
- SPOT intensity (Pex13, P80667): 16
- SPOT intensity (Bzz1-2, P38822): 4
- SPOT intensity (Bem1-1, P29366): 0
- SPOT intensity (Fus1, P11710): 15
- SPOT intensity (Lsb3, P43603): 2
- SPOT intensity (Cyk3, Q07533): 3
- SPOT intensity (Cdc25, P04821): 236
- SPOT intensity (Hse1, P38753): 15
- SPOT intensity (GST): 0
- SPOT intensity (Lsb1, P53281): 7
- SPOT intensity (Rvs167, P39743): 7
- SPOT intensity (Boi1, P38041): 16
- SPOT intensity (Lsb4, P32793): 2
- SPOT intensity (Nbp2, Q12163): 28
- SPOT intensity (Pin3, Q06449): 2
- SPOT intensity (Bem1-2, P29366): 10
- SPOT intensity (Hof1, Q05080): 15
- SPOT intensity (Abp1, P15891): 37
- SPOT intensity (Bud14, P27637): 15
- SPOT intensity (Myo3, P36006): 8
- SPOT intensity (Sho1, P40073): 78
- SPOT intensity (Boi2, P39969): 0
- SPOT intensity (Sla1-3, P32790): 15
- SPOT intensity (Bbc1, P47068): 140
- SPOT intensity (Bzz1-1, P38822): 0
- SPOT intensity (Sla1-2, P32790): 1
- SPOT intensity (Myo5, Q04439): 0

B4: unnamed (peptide)
chain: FFRRSELYLPNSSKA
- SPOT intensity (Pex13, P80667): 10
- SPOT intensity (Bzz1-2, P38822): 5
- SPOT intensity (Bem1-1, P29366): 3
- SPOT intensity (Fus1, P11710): 37
- SPOT intensity (Lsb3, P43603): 0
- SPOT intensity (Cyk3, Q07533): 0
- SPOT intensity (Cdc25, P04821): 115
- SPOT intensity (Hse1, P38753): 43
- SPOT intensity (GST): 0
- SPOT intensity (Lsb1, P53281): 2
- SPOT intensity (Rvs167, P39743): 5
- SPOT intensity (Boi1, P38041): 3
- SPOT intensity (Lsb4, P32793): 0
- SPOT intensity (Nbp2, Q12163): 14
- SPOT intensity (Pin3, Q06449): 1
- SPOT intensity (Bem1-2, P29366): 15
- SPOT intensity (Hof1, Q05080): 25
- SPOT intensity (Abp1, P15891): 22
- SPOT intensity (Bud14, P27637): 10
- SPOT intensity (Myo3, P36006): 0
- SPOT intensity (Sho1, P40073): 62
- SPOT intensity (Boi2, P39969): 0
- SPOT intensity (Sla1-3, P32790): 53
- SPOT intensity (Bbc1, P47068): 19
- SPOT intensity (Bzz1-1, P38822): 1
- SPOT intensity (Sla1-2, P32790): 0
- SPOT intensity (Myo5, Q04439): 0
